In paper PMC5524369 one finds Kd data, which are given here for 3 substances.

In experiment [1] the target is Tamm-Horsfall protein (human) (UniProt P07911). The experiment is described as follows: ELISA; wells coated with 25 μg/ml THP; C3b 1 to 250 μg/ml in 20 mM Tris/20 mM NaCl/0.05% Tween 20 (pH 7.5) without BSA, overnight, 4°C; detected with goat anti-human C3b; fitted to B = (F × Cap)/(KD + F).
For the next experiment, the target named is C1q (Homo sapiens) (UniProt P02745). To be noted: cited from earlier work.
The target of experiment [2] is complement factor H (Homo sapiens) (UniProt P08603). Kind of experiment: SPR. Conditions: cited from earlier work.
The target of experiment [3] is Tamm-Horsfall protein (human) (UniProt P07911). The experiment is described as follows: ELISA; wells coated with 25 μg/ml THP; CFH 10 to 250 μg/ml in 1% BSA/20 mM Tris/20 mM NaCl/0.05% Tween 20 (pH 7.5), overnight, 4°C; detected with goat anti-human CFH; fitted to B = (F × Cap)/(KD + F). In general terms: An ELISA detects its analyte on a solid surface through an enzyme-linked reagent.

Experiment [4] shares this target. The experiment is described as above. The source holds these as a separate data set.

Chain of complement factor H (P08603 19-1231): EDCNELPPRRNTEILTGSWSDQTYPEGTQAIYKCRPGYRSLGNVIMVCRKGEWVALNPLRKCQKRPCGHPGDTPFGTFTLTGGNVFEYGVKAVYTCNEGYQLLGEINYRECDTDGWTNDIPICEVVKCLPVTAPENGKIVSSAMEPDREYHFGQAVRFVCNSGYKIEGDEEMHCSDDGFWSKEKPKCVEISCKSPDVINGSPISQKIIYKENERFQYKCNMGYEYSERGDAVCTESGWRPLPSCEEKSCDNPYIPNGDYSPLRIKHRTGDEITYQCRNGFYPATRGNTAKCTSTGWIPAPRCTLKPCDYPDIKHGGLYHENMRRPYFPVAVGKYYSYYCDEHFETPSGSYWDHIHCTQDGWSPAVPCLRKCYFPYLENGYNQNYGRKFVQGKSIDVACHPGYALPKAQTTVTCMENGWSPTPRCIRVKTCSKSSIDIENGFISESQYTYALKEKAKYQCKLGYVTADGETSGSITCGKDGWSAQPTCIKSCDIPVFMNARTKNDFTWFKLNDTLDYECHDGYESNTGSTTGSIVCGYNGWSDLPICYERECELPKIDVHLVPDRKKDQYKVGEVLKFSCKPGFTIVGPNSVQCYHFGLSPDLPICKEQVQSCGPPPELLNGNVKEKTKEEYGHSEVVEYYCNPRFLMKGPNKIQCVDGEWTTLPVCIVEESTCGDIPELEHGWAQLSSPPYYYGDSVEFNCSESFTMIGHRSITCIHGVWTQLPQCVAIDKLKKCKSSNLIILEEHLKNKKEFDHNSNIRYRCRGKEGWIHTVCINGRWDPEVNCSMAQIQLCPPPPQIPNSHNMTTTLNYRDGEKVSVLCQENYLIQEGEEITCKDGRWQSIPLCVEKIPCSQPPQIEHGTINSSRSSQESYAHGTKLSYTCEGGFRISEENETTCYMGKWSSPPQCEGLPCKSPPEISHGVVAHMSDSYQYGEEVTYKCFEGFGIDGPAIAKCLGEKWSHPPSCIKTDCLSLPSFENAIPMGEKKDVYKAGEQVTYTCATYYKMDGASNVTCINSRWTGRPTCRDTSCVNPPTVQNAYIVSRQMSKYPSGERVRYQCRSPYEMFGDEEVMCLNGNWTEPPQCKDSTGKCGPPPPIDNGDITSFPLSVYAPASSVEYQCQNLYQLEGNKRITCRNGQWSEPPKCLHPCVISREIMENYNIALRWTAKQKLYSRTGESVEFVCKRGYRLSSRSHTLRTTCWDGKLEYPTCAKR
Chain of C1q (Homo sapiens) (P02745 23-245, chain 1 of 3): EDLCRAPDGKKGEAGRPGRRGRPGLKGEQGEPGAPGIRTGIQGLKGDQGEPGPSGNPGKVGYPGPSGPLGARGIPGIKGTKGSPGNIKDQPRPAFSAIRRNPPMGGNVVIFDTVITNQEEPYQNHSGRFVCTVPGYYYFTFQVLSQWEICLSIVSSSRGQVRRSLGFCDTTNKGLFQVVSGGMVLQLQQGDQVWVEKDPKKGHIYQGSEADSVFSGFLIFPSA
Chain of C1q (Homo sapiens) (P02746 28-253, chain 2 of 3, further chain): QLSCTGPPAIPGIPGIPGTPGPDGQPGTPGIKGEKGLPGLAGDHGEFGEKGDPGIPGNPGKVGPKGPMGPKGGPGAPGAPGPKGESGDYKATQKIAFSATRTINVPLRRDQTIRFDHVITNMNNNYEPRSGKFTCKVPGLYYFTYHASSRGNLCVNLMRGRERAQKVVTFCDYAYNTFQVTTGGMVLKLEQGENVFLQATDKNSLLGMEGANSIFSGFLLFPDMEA
Chain of C1q (Homo sapiens) (P02747 29-245, chain 3 of 3, further chain): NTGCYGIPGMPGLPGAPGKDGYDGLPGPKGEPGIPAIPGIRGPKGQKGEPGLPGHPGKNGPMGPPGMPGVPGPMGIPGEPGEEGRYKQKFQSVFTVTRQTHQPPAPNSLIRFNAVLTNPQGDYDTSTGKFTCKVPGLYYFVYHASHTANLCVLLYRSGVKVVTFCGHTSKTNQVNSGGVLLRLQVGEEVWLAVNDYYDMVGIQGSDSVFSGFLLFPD
Chain of complement factor H (Homo sapiens) (P08603 19-1231): as the sequence (P08603 19-1231) above

As for “complement 3b (from UniProt P01024 749-1663; P01024 749-1663) (natural protein)”, the Kd in experiment [1] stood at 50 nM.

Consider THP (uromodulin) (from UniProt P07911), for which the results for the Kd (with C1q (Homo sapiens); in experiment [2]) were 1 nM and 4 µM, respectively.

For “complement factor H (from UniProt P08603 19-1231) (natural protein)”, the values for the Kd in experiment [3] and in experiment [4] were 1200 nM and 1000 nM, respectively.

Usually Kd stands for the equilibrium constant for the complex coming apart.
